T1: CCR5 N13A, HA-tagged (human, UniProt P51681 1-352)
T1 sequence: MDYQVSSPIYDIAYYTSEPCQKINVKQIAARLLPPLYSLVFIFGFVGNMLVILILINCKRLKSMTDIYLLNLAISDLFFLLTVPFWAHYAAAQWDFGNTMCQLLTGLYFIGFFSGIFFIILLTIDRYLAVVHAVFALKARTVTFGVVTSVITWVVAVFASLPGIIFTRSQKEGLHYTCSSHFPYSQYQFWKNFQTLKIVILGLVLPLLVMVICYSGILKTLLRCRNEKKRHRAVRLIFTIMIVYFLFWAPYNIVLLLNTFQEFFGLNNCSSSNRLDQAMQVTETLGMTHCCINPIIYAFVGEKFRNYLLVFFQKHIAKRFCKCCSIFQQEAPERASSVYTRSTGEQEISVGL

T2: CCR5 K171A/E172A, HA-tagged (human, UniProt P51681 1-352)
T2 sequence: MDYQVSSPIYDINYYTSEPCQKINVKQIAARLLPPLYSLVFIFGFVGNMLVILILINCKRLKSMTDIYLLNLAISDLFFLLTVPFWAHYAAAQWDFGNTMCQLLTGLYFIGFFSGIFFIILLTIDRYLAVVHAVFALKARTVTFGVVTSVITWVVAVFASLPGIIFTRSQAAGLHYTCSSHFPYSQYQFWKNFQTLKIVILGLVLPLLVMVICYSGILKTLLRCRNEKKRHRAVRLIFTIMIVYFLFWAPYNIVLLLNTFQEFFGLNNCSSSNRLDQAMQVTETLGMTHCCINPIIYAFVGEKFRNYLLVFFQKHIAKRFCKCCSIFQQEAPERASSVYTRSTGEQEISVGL

T3: CCR5 H175A, HA-tagged (human, UniProt P51681 1-352)
T3 sequence: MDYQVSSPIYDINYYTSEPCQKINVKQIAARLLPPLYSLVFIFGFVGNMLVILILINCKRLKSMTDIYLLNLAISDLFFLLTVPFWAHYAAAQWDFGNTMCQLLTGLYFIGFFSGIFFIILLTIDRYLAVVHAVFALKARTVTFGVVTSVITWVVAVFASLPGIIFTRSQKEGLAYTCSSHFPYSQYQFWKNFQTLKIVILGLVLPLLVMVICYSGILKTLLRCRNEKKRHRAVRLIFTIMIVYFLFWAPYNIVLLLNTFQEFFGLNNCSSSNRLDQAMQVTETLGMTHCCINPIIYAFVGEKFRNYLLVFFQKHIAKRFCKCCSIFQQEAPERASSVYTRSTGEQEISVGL

T4: CCR5 E262A, HA-tagged (human, UniProt P51681 1-352)
T4 sequence: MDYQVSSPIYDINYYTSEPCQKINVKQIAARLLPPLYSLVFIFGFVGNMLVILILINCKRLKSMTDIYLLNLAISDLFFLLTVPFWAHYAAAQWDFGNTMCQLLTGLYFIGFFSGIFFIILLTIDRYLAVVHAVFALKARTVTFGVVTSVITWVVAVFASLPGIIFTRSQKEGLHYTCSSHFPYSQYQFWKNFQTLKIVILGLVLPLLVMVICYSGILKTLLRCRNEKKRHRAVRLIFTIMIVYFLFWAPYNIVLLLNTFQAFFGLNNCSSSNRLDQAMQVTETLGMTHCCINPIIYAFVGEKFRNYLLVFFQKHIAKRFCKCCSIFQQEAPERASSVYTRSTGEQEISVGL


Assays:
Assay in all cases: cell-based or functional assay
CCR5 N13A, HA-tagged = target: T1, CCR5 N13A, HA-tagged
[1] = target: T2, CCR5 K171A/E172A, HA-tagged
CCR5 H175A, HA-tagged = target: T3, CCR5 H175A, HA-tagged
CCR5 E262A, HA-tagged = target: T4, CCR5 E262A, HA-tagged

| Binder | relative % inhibition of NLluc/JR-FL entry into U87MG-CD4 cells by 2 µg/ml chemokine (wild-type = 100) (CCR5 N13A, HA-tagged) | relative % inhibition of NLluc/JR-FL entry into U87MG-CD4 cells by 2 µg/ml chemokine (wild-type = 100) [1] | relative % inhibition of NLluc/JR-FL entry into U87MG-CD4 cells by 2 µg/ml chemokine (wild-type = 100) (CCR5 H175A, HA-tagged) | relative % inhibition of NLluc/JR-FL entry into U87MG-CD4 cells by 2 µg/ml chemokine (wild-type = 100) (CCR5 E262A, HA-tagged) |
| --- | --- | --- | --- | --- |
| RANTES, recombinant human (ligand) SPYSSDTTPCCFAYIARPLPRAHIKEYFYTSGKCSNPAVVFVTRKNRQVCANPEKKWVREYINSLEMS | 92% | 107% | 95% | 100% |
| macrophage inflammatory protein (MIP)-1β, recombinant human (ligand, UniProt P13236 24-92, looked up) APMGSDPPTACCFSYTARKLPRNFVVDYYETSSLCSQPAVVFQTKRSKQVCADPSESWVQEYVYDLELN | 93% | 97% | 100% | 102% |

Source: patent publication US20040086528A1 (PROGENICS PHARMACEUTICALS, published 2004)
